In article PMC8533620, “The Role of the C-Terminal Lysine of S100P in S100P-Induced Cell Migration and Metastasis” (Biomolecules, 2021):
Numbering of substitutions follows the chain as printed. Numbers in names are those of the source. Where “and” joins values, the source holds several entries; their conditions need not be identical. Equal entries are not always repeated.

T1: recombinant protein consisting of the 149 C-terminal amino acids of NMMIIA (UniProt P35579 1812-1960)
T1 construct: non-muscle myosin heavy chain isoform IIA (NMMIIA), the 149 C-terminal amino acids; also called rNMMIIA; recombinant C-terminal fragment of non-muscle myosin II heavy chain; source: recombinant
T1 sequence (looked up): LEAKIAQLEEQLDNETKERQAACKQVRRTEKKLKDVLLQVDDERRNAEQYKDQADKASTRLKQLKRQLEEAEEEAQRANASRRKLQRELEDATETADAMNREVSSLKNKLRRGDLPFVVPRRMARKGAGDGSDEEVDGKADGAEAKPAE

B1: wild-type recombinant S100P protein (natural protein, human, UniProt P25815 1-95, looked up)
chain: MTELETAMGMIIDVFSRYSGSEGSTQTLTKGELKVLMEKELPGFLQSGKDKDAVDKLLKDLDANGDAQVDFSEFIVFVAAITSACHKYFEKAGLK
notes: S100P, human, 95-amino-acid monomer; cDNA encoding the wild-type protein in pET15b; primers on GenBank NM_005980 run from the ATG (95) to the stop codon (382); also called rS100P; wild-type rS100P; source: recombinant protein from a cDNA in pET15b vector; details in Supplementary Methods S1
B2: K95A mutant recombinant S100P protein (natural protein, human, UniProt P25815 1-95, looked up)
chain: B1 chain with K95A
notes: S100P, human, 95 amino acids, with the C-terminal lysine replaced by alanine; Identity confirmed by mass spectrometry; also called K95A S100P; K95A mutant rS100P; source: recombinant protein from pET15b vector after site-directed mutagenesis; details in Supplementary Methods S1
B3: ΔK95 mutant recombinant S100P protein (natural protein, human, UniProt P25815 1-95, looked up)
chain: MTELETAMGMIIDVFSRYSGSEGSTQTLTKGELKVLMEKELPGFLQSGKDKDAVDKLLKDLDANGDAQVDFSEFIVFVAAITSACHKYFEKAGL
notes: S100P, human, with the C-terminal lysine (K95) deleted, so that the chain ends with leucine 94; Identity confirmed by mass spectrometry; also called ΔK95 S100P; ΔK95 mutant rS100P; source: recombinant protein from pET15b vector after site-directed mutagenesis; details in Supplementary Methods S1

Target: T1, recombinant protein consisting of the …
Assay: resonant mirror biosensor (IAsys); rNMMIIA immobilised, rS100P variants in solution; dual-channel IAsys resonant mirror biosensor; association and dissociation curves fitted a single-site model at least as well as a two-site model; equilibrium and kinetic Kd
Details: both partners purified

| Binder | Kd |
| --- | --- |
| B1 | 370 to 470 nM |
| B2 | 2300 nM and 4100 nM |
| B3 | 2700 nM and 6000 nM |
